Test results as given in article PMC10127204, “Unique Initiation and Termination Mechanisms Involved in the Biosynthesis of a Hybrid Polyketide-Nonribosomal Peptide Lyngbyapeptin B Produced by the Marine Cyanobacterium Moorena bouillonii” (ACS Chemical Biology, 2023).

Columns and labels:
Format in all cases: biochemical, Moorena bouillonii
Settings in all cases: Fe2+ and molecular oxygen required
[1] = substrate: CC1=N[C@H](C(=O)O)CS1; assay: kinetic analysis of 2-methylthiazole formation
[2] = substrate: CC1=N[C@@H](C(=O)O)CS1; assay: kinetic analysis of 2-methylthiazole formation
[3] = substrate: O=C(O)[C@@H]1CSC(c2ccccc2)=N1; assay: kinetic analysis of 2-phenylthiazole formation

B1: LynB7 (Moorena bouillonii) (protein)
chain: MVKTYEIIDADSHVLEPLDLWEKYLEPEFKHFAPKEDYKLEGEPILYKFNPSDFVESEAAKRAQEDPDIYKGGYDPKARVELMEQMGSDMTFLYPTIGLWMWSVDTMDSKLAGAFVRSYNNWLHDFCNYAPQKLKGIGAINQHDPEEMVPELQRIVEFGWKAVFIRPNPVKGRILSDPVYEPFWSECERLNVAVTVHEGTHSRLPTTGADRFDSRFALHACSHPMEQMMALLALIEGGVLERHPQLRVGFFESGCGWLPYWLWRLDEEYENLYYEVKDNVKMKPSEYFHRQCYTGFEVDEPYLAELIEYIGADKLLFGSDFPHMDHPNFIESVDETLALREKLPEDVIKKILHDNPLRYYGLT
- Km [1]: 2100 ± 200 µM
- kcat [1]: 17 ± 0.7 s^–1
- Km [2]: 3600 ± 700 µM
- kcat [2]: 1.3 ± 0.1 s^–1
- Km [3]: 1500 ± 300 µM
- kcat [3]: 11 ± 0.5 s^–1
